Target: T1, recombinant mouse CD206 full length protein (Mus musculus, UniProt Q61830)
T1 construct: honeybee melittin signal peptide (N); host or cells: Expi293E cells
T1 sequence (Q61830 23-1387): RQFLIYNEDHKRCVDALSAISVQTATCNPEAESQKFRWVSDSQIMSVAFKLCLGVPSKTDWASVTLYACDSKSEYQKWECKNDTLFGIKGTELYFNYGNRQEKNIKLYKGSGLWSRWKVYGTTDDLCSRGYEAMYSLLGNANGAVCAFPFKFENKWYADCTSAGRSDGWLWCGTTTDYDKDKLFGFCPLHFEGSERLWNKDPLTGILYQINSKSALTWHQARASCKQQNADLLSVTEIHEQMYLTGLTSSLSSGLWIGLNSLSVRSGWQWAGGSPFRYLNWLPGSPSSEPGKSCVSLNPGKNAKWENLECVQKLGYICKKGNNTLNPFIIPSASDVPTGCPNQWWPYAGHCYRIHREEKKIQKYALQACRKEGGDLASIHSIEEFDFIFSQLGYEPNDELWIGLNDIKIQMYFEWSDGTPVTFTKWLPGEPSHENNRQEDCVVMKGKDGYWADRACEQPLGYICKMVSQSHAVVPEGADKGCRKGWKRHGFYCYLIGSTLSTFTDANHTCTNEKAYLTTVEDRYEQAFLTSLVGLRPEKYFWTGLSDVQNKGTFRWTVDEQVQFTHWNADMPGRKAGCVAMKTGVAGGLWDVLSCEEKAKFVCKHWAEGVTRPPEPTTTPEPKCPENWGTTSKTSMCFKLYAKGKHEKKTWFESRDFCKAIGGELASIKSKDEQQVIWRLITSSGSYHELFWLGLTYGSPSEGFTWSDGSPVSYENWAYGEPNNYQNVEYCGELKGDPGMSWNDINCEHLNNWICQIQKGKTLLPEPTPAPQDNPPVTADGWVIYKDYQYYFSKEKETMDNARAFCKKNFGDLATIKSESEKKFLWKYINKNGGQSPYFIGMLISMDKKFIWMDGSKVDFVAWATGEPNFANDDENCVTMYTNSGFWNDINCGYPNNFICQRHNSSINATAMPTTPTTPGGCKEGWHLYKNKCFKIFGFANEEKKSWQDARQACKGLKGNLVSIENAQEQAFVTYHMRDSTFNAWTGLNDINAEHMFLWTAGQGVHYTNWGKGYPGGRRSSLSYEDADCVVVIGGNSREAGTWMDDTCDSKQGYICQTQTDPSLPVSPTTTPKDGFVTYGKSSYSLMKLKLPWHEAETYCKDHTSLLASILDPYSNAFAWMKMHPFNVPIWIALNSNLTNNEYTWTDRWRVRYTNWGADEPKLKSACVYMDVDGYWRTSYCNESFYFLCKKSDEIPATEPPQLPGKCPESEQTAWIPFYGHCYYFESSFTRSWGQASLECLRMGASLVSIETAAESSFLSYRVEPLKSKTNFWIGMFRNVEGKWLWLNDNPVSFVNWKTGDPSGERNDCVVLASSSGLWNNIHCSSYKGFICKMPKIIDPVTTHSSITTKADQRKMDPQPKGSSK
Assay: Negative stain electron microscopy of open vs closed CD206 conformation
Type: biochemical
Settings: negative stain EM
Procedure: A 3 μL aliquot containing ˜0.01 mg/mL of the sample was applied for 20 seconds onto a carbon-coated 200 Cu mesh grid that had been glow discharged at 30 mA for 30 sec, then negatively stained with 0.7% (w/v) uranyl formate for 40 sec. […] Images were acquired with an Eagle 2k×2k CCD camera (http://FEI.com) using a nominal defocus of 1500 nm and the SerialEM software (54). […] Images were acquired with a Ceta 4k×4k CCD camera (http://FEI.com) using a nominal defocus of 1200 nm and the EPU software. For electron microscopy data processing, particles were selected from the micrographs, extracted, and a reference-free 2D class averages were obtained using RELION 2.1.0. Microscale thermophoresis and cellular thermal shift assays.

| Sequence | closed vs open conformation of CD206 |
| --- | --- |
| EKLSAFRNFF [AVP1] | lower ratios of closed-to-open conformations |
| FFRKSKEKIG [LL37F1, 10mer motif from cathelicidin antimicrobial peptide [Homo sapiens]] | lower ratios of closed-to-open conformations |

From patent US12564617B2, “Methods for modulating macrophage activity” (Riptide Bioscience, Inc., priority 2019, dated 2026)
